IntAct's records for PubMed 20133777

B1: Receptor-type tyrosine-protein phosphatase T (Homo sapiens), O14522-1 (parent)
chain: MASLAALALSLLLRLQLPPLPGARAQSAAGGCSFDEHYSNCGYSVALGTNGFTWEQINTWEKPMLDQAVPTGSFMMVNSSGRASGQKAHLLLPTLKENDTHCIDFHYYFSSRDRSSPGALNVYVKVNGGPQGNPVWNVSGVVTEGWVKAELAISTFWPHFYQVIFESVSLKGHPGYIAVDEVRVLAHPCRKAPHFLRLQNVEVNVGQNATFQCIAGGKWSQHDKLWLQQWNGRDTALMVTRVVNHRRFSATVSVADTAQRSVSKYRCVIRSDGGSGVSNYAELIVKEPPTPIAPPELLAVGATYLWIKPNANSIIGDGPIILKEVEYRTTTGTWAETHIVDSPNYKLWHLDPDVEYEIRVLLTRPGEGGTGPPGPPLTTRTKCADPVHGPQNVEIVDIRARQLTLQWEPFGYAVTRCHSYNLTVQYQYVFNQQQYEAEEVIQTSSHYTLRGLRPFMTIRLRLLLSNPEGRMESEELVVQTEEDVPGAVPLESIQGGPFEEKIYIQWKPPNETNGVITLYEINYKAVGSLDPSADLSSQRGKVFKLRNETHHLFVGLYPGTTYSFTIKASTAKGFGPPVTTRIATKISAPSMPEYDTDTPLNETDTTITVMLKPAQSRGAPVSVYQLVVKEERLQKSRRAADIIECFSVPVSYRNASSLDSLHYFAAELKPANLPVTQPFTVGDNKTYNGYWNPPLSPLKSYSIYFQALSKANGETKINCVRLATKAPMGSAQVTPGTPLCLLTTGASTQNSNTVEPEKQVDNTVKMAGVIAGLLMFIIILLGVMLTIKRRRNAYSYSYYLSQRKLAKKQKETQSGAQREMGPVASADKPTTKLSASRNDEGFSSSSQDVNGFTDGSRGELSQPTLTIQTHPYRTCDPVEMSYPRDQFQPAIRVADLLQHITQMKRGQGYGFKEEYEALPEGQTASWDTAKEDENRNKNRYGNIISYDHSRVRLLVLDGDPHSDYINANYIDGYHRPRHYIATQGPMQETVKDFWRMIWQENSASIVMVTNLVEVGRVKCVRYWPDDTEVYGDIKVTLIETEPLAEYVIRTFTVQKKGYHEIRELRLFHFTSWPDHGVPCYATGLLGFVRQVKFLNPPEAGPIVVHCSAGAGRTGCFIAIDTMLDMAENEGVVDIFNCVRELRAQRVNLVQTEEQYVFVHDAILEACLCGNTAIPVCEFRSLYYNISRLDPQTNSSQIKDEFQTLNIVTPRVRPEDCSIGLLPRNHDKNRSMDVLPLDRCLPFLISVDGESSNYINAALMDSHKQPAAFVVTQHPLPNTVADFWRLVFDYNCSSVVMLNEMDTAQFCMQYWPEKTSGCYGPIQVEFVSADIDEDIIHRIFRICNMARPQDGYRIVQHLQYIGWPAYRDTPPSKRSLLKVVRRLEKWQEQYDGREGRTVVHCLNGGGRSGTFCAICSVCEMIQQQNIIDVFHIVKTLRNNKSNMVETLEQYKFVYEVALEYLSSF

Variants of: B1
Details: with paxi_human PXN

| Variant | effect of a mutation on the interaction |
| --- | --- |
| D1074A;C1106S | increasing interaction |
| D1074A | increasing interaction |
